experiment: soluble on expression in E. coli; label from the status in PepcDB or PDB records

Sequence | soluble on expression in E. coli
MGSDKIHHHHHHMKIKVVLSGYGTVGREFIKLLHEKCSYIYETYGIELVVSGVLGRNVAIHNEDGLSIHNLLMYGSSSAAIEKYIEYHPEERATDNISGTVLVESTVTNLKDGNPGKQYIKQAIEKQMDIVAISKGALVTNWREINEAAKIANVRIRYSGATAAALPTLDIGQFSLAGCHVKKIEGILNGTTNYILTKMNEEDITFEEALKEAQRKGIAETNPILDVSGSDSACKLLLLTNSLMGTEHMLTDIYIKGIEHVTKQQIRNAKEQNKFIKLIASAYKDQDGKVTLKVEPYEIDKDHPLANVNGTEKGITFFTDTMGQVTTIGGASNPRGAAAAALKDIINLYRKDLSLSNR | not soluble
MGSDKIHHHHHHMKILVVGAGAVGGYFGARLAEKGEDVTFLVRERRFEELRAGLQVKSLHGDITCSPRLIRTGEKGTFDVILLSTKAYHLEQVLEDIEPFVATDTYILPLLNGMAHLKQLEQHFGAERVLGGLCFIESTLDGKGHIVQTSPSHHLLFGPLPGTRTDRLEELKQHLTGTAAPINYSDTITRDMWNKYLFITTFSGVTSLFRSAIGPIRSQEEGMMMIRRLATEAKEAMERQGAVFSDGIEQIQQQQIAQMDETMKSSLQRDMEKGNEVESAHLFGTLLSKDEATQVMLPAIYANLKIYRMSRKDV | not soluble
MGSDKIHHHHHHMKISCKNVGVILPIFNSSHRSFKKTFLQAASGGRIGSSNTGIIEVEALKKIDFTLTEGNRLALIGHNGSGKTTLLRVLAGAYKPTSGKYECIGRVTSLIDPMMGMDGELTGLENIKLRGLFLGLSKNEIKNITEDVIEFSELGDFIKIPVRTYSSGMVLRLGFSISTAINPEILLMDEWMSVGDSDFKRKAEMRLNSFISKAGIMVMATHDDELAKSVCNKFIRLEHGEIVSKGGF | not soluble
MGSDKIHHHHHHMKISETANKNHEELFPDHKSALKITDPELVEIFDNFAFDEVIQHGDLDTKTRLMVILGALIGSQTLSEYKVMLKGALNVGVTPIEVKEIVYQSVPYVGIAKAYDFINATNEILESRGVKLPLEGQSTTTPENRHEKGLEVQKSIFGEIIDKMYESSPKNQIHIQKYLSANCFGDYYTRTGLDIKTRELLTFCIILALGGCESQLKGHIVGNLNVGNDKKVLLDAVTQTLPYVGYPRTLNAIACLNEIIPE | not soluble
MGSDKIHHHHHHMKIVHVCETLKGGIESYLAEIIPYQVGLYGAENIHIIVPRDGDEGRSEFHEAVVWEFRRQGRSLSTMLNLCLAILKIVRTQAPDVIHLHSSFAGAIGRVVLMALRKETKVIYCPHGWSYLRQGAEHTNWLWKKIETMLALACNRIVCISEHEYNAALDAGLPKQKLELIVSGISDLVPDAPRNQAVSSEKRAIRLLFVGRLDYQKGVDLLFNALRLAARKDIELTVVGEAVVNSGWWAQVRGSCPENVQIIGWQERDALQIFYDLADALVVPSRWEGFGLVAVEALRAGTPVICNVAGALPDIVEHGISGYHLNFENEEKAVAFFSDLKLENLTLLRRAARERYTSVFKSQAMNEKMLQMYQAVMPHAETVGAAGFME | not soluble
MGSDKIHHHHHHMKKIHGKVMVERHHLEILRAVERQGSLTAAAEQLHLTQSALSHAIRKLEQQLGTSVWLREGRQLRLTQAGHQLLALANRLLPQFEHAEMQIHQIAQGQRGSLRVGMECHPCYQWLLKVVGPYLQQWPDVDVDVKQEFQFGGMGALFGHDIDLLVTPDPLHKPGVRFEPVFDYEQVLVVSEDHSLADEKWVEPHQLEKETLITYPVAVERLDIFTRFFLPAHTAPARHKTIETTDIMLQMVAAGRGVSALPRWLVDDYARNMPIRALKLGQQGMPKQIFLGFRERDEAVDYLNAFVKLARSIRWN | not soluble
MGSDKIHHHHHHMKKKSMIVLTSAFVLLSAFSCGGGGKATGTNEQSEKVVVNVPQFDADSAYLYVKNQVDFGPRVPNTKEHVACGNYLAGKLEAFGAKVTNQYADLIAYDGTLLKARNIIGSYKPESKKRIALFAHWDTRPWADNDADEKNHHTPILGANDGASGVGALLEIARLVNQQQPELGIDIIFLDAEDYGTPQFYEGKHKEEAWCLGSQYWSRNPHVQGYNARFGILLDMVGGENSVFLKEGYSEEFAPDINKKVWKAAKKAGYGKTFIDERGDTITDDHLFINRLARIKTIDIIPNDPETGFPPTWHTIHDNMDHIDKNTLKAVGQTVLEVIYNEK | not soluble
MGSDKIHHHHHHMKKLIAIDLDGTLLNEKSTISEENTESLQRAQEAGMEVVIATGRAYFDVIDLLKPTGMHPWVIGANGATIHDPTGRRLLSIPLEHKQAIEILHWLEGKHFYYEVFSDEAIFTPQNGRELLAIEMDRLVSANPQTDLGTLSQAAAKQFSQTGFSYVSSYRDLLDTEVNIYNILAFSFDDQKLAKGWDRFKQTDNVTLVTSAEHNFELEHPLASKGNALTWLAKHLHIPLEHTVAIGDSMNDYSMITIAGYSIAMGNARAEIKQISHEVTLSNYEHGVSHSIERLLAAKRLGQN | not soluble
MGSDKIHHHHHHMKKQWNEFVRDRMSEKNLKQEDIAEAIERTQGAVGHWLTGRRSPNFMEVAKMLNATGTDQVILNSDGTIEDIEFIGIPKKGLVKVIGEATMGTDGSVDIEEIHVGYIDIFTTDPKAFCLRVKGSSMEPRIHSGEFVLVEPQSPFSNGDDVFIRTKDGKNMIKILDYQKDGEYRFSSINNDHKPFNLAIDEVELVYYVAGILKKSRFVDLEP | not soluble
MGSDKIHHHHHHMKKTERINDMLIFLNNKRYFNLKDLMVRYDISKSTALRDIQSLEEIGVPIYSELGRNGSYKIIENSVLSPIYFSVDEMYALYFSILTLNGYKTKPFNIESIALENKFKHVLPDNVRKNIAIMERTLSFEVTNHSNFSPFLKEILQGIFAERVYHLTYLKKDVEKALIAQFIRIESKFGQWYAKIFNFETNNVQIIRCDKILSIVETSNTKPKNLEELLNYLATFHRKPDAIDFIVIVNQRGKDIFDKENYPSMRIQKENEHYIITGYFNKQEVDLSRTIF | not soluble
MGSDKIHHHHHHMKKTIIISMLLAAGAATYYFTQQTETPKGPRGRPTPNVVVAKAEMQPIRDEVEALGTGKANESITVTPKVTDMVTEINFNDGQMVDKGQLLVRLQDREQIARVTVARVKMKDHERELARISSLVTSQTVAALERDRLQTLIDTAKAELDQAESSLKDRRILAPFSGRLGLRQVSQGSLVTPGTVITTLDDISTIKLDFSVPERFLQSLAIGKSVEASAVAFEGELFTGKVVSVDSRINPTTRAVTVRAEIPNKGMRLLPGMLMKVKLIKQSREALIIPEAAIIPIQKDHFVYLVNDENVVERRQVQLGLRKRGWVEIVGGVDVGEQVMVRGILKVRPGDTVKVQYSEHFSFNQQAKVEPLA | not soluble
MGSDKIHHHHHHMKKVNYAAIDIGSNAVRLLIKCVNEENAPELMSKVQLIRIPLRLGEDAFTMGVISAEKEKKLIRLMKAYKQLMKIYDVVDYRACATSAMRDARNGKDIARQIARKTGIRVDIIDGQEEAHIVYDNHIEQLFASGQNYLYVDVGGGSTEINLISNGELKNSRSYNIGTVRMLSGMVKEEEKEALRTDLIGLAAEYAPTSIIGSGGNINKLFRLADKKDKKASLLPVESLREIYEALQALPAEQRIKQYKLKPDRADVIVPAAEIFLEVAMNVKATGIIVPTIGLSDGIIDSLYTQKMNTPVAPKVQ | not soluble
MGSDKIHHHHHHMKLDDCQLLIHVHKAGTMRGAARSLHLSQPAISQRLKQMEDLWGGAIFIRTHKKLLLTPLGEKVLTFAQETLWRTERLREELEQMKGSVSGRLSLGISSVVSHYLIPPLLEKYTKAYPRVNIELISTTSDQIRRTFSSYHVAIFRGDRLPEQASHLLLADPLYLVFDKDIPIEKRPLIQWKSDPSLEALIQAWMRSVTSFTFRGHVSVDQIETCKQLMLRGVGAAILPEMAIKDVSDQCFHKLPLQLDNQPLERQTWVLYEEEALSLPQVEAFLQLLPLK | not soluble
MGSDKIHHHHHHMKLDLVRFFQACNPSKTLVVSKPEDRQYYIDFSKVRGAKIIEELGRTITRLSPEQPTCQLFTGHIGCGKSTELLRLKAELEQQGFHVVYFESSQSLDMADIDVTDILLAVAREVSQSLEAIKINLKPGYFKNLFTEISEFLQTPLDIGVEAELSVGIAKITAKTKDSPKLRGQLRQYLEPRTNGILESINKELLKPAREKLKQEGKKGLVVIIDNLDRVDNSLKPSGYYQPEYLFVERGEQLNQLNCHVVYTIPLVLIFSNALGRLINRFGIDPKVLPMVPVQVQDGSQFLQGITLLQQMVMARAFPGVSWEQSRHLITEVFDSLDTLERLCRVSGGHLRNLLMLLFRCLQQEDPPLSRECVDRVIKQRRNELTLAITPDEWELLHEVAQEKNLRGHERYDLLLRSMFVFEYRDEDGSWFDINPILAEAKEFRL | not soluble
MGSDKIHHHHHHMKLGILEKYRRFLPVTDKTPMLSLNEGNTPLIPLVNMSRELGINIYVKYEGSNPTGSFKDRGMVVAVAKALEEGSKAIMCASTGNTSASAAAYAARAGIKAIVLIPEGKIALGKLAQAMIYGAVVLQVRGNFDKCLELVKEITSKYPITLVNSINPYRLEGQKTAAFEIVDELGDAPDYHFIPVGNAGNISAYWMGYKEYYQHGFSTKLPKMMGFQAEGAAPIVRGHPIENPETVATAIRIGNPANWEKAVRARDESGGDIDMVSDEEILRAQRLLAQKEGIFCEPASAASIAGLLKKHRQGIFRGGEIVVCTLTGNGLKDPNIVISQLEPPRIIEGRVEEILEVLDI | not soluble
MGSDKIHHHHHHMKLGTQNQAFFPENIEEKFAYVKEMGFEGFEIDGKLLVENLDEVKKAIEKTGLPVSTACGGYDGWIGDFIEERRLNGLEEIKAILEALAEVGGQGIVVPAAWGMFTYRLPPMVSPRSQAGDFKAVSESLVYLDKIAGETGTKVYLEPLNRYQDHMINLLSDAQKYIDENELKNVEIIADFYHMNIEEDSIPTVLETYKDSIGHIHVADNHRYQPGSGSLDFKTSFDQLKKNGYNGFLTFECRVRSENPEQAYKDALAHLKSCLI | not soluble
MGSDKIHHHHHHMKLICEKELCTGCGLCAARCPKHSISLVAEELGHLYPSVDQKKCIDCGLCQKACPSLHDTVCLYPSVAYAAWSKDEEDYRSSTSGGMASVLTHYFLANVGIVYGCTVIPGIEIKHIRIDNLKDAYKLKGSKYVQSSIVDVLSQIRQDVKDGTNVLFIGTPCQVTAVKRMYEEQPDNLFLVDLICHGVPSNKWLVDYIANTLKIKADKVSSIGFRLFEAFSLCVYNDDRLIYKSGDLWTHRYEDLYYNTFIDGFTYRDSCFNCHYAKPERVSDITIGDFWGLGNETDDNYIPKHPYGISCVLPLTEKGKRLISIVKDKLNIYERPVTEAINGNDQLRFPKKKNLRIKFFRRIHKYIGVDAAYKLCVCDKIVKYKIRKIIR | not soluble
MGSDKIHHHHHHMKLKFLGGAEEVGRLGVKITDKDTSVIVDYGVIPEKPPQYPLPPEPVDAMFITHSHLDHIGAVPVYYHKGEPDLYATQMTLNTMKPLLRDALKVTNIEGYPAMFNEDDINSALANMRPARYFESIEVGNMVATPYPAGHIPGSTMWKFEDGISVTVTGDVNTIDTYLINGAKPIKTDVLIIESTYAGKNHESREDVRKRFRDSVKEVIDSGGKVIMPAFAVGRTQELIMTIADMGYDVAVDGMGNDISTIYLNTPGFLRSKKEFLRALSKVRIIKGRNMRENAIRSDIIISTSGMLDGGPVLGYIQKLLEDEKSAIFVTGYQVEGTNGRSLLETGTLTIAGVTVKPKMRVEFFDMSAHAGHDELVNFIKAIDPKKIVLCHGDHRENLLPDLEGYDVLLPYNGKEYEI | not soluble
MGSDKIHHHHHHMKMDFKIRIAQQSDSAELRDLYKNTVLVVNRRDYSQDEVEDWASCGDDLSNIEEMIKTHYFIVAVNQLSQIVGFSSITPQGYLHSMFIHADFQGKGIATMLLEEIERYAITKGIIQITSEVSLTARPFFEKQKYVVKKEQKRQANKLNLTNFWMAKTLSVIKPYHGRIPACGVFCGGCPSYTRDEKICQGAEENKTRCEKCRTFYLCCVEKGITHCYQCHLFPCTKFKGFTKRWLKYGQDFIENQKFLKQVGEMEFLRFYNEKVTD | not soluble

Source: the DeepSol protein solubility set
